B1: OR4K15 (parent)
chain: GUUAACGGUCAUAGGCCAUGGAAACUAGGAGCACCAUUUCGCUGCCAGUGAAGAAAUGAACAAAGAAAAUCUGGGCCAGGCAGGCAUCAAAAGAAAUAGUCUUGCGCUCAACCAGAAAGUCUGUAAUCAUUUUAAGGGUA

Variants of: B1
Assay: self-cleavage, relative activity (ratio to wild type); higher = more cleavage; in vitro, sequencing; the parent is a self-cleaving ribozyme

Row | Variant | self-cleavage
1 | GUUAACGGUCAUAGGCCAUGGAAACUAGGAGCACCAUUUCGCUGCCAGUGAAGAAAUGAACAAAGAAAAUCCGGGCCAGGCAGGCAUCGAAAGAAAUAGUCUUGCGCUCAACCAGAAAGUCUGUAAUCAUUUUAAGGGUA [U72C A89G] | 0.24
2 | GUUAACGGUCAUAGGCCAUGGAAACUAGGAGCACCAUUUCGCUGCCAGUGAAGAAAUGAACAAAGAAAAUCCGGGCCCGGCAGGCAUCAAAAGAAAUAGUCUUGCGCUCAACCAGAAAGUCUGUAAUCAUUUUAAGGGUA [U72C A78C] | 0.27
3 | GUUAACGGUCAUAGGCCAUGGAAACUAGGAGCACCAUUUCGCUGCCAGUGAAGAAAUGAACAAAGAAAAUCCGGGCCGGGCAGGCAUCAAAAGAAAUAGUCUUGCGCUCAACCAGAAAGUCUGUAAUCAUUUUAAGGGUA [U72C A78G] | 0.25
4 | GUUAACGGUCAUAGGCCAUGGAAACUAGGAGCACCAUUUCGCUGCCAGUGAAGAAAUGAACAAAGAAAAUCCGGGCCAGGCAGGCCUCAAAAGAAAUAGUCUUGCGCUCAACCAGAAAGUCUGUAAUCAUUUUAAGGGUA [U72C A86C] | 0.28
5 | GUUAACGGUCAUAGGCCAUGGAAACUAGGAGCACCAUUUCGCUGCCAGUGAAGAAAUGAACAAAGAAAAUCAGGGCCAGGCAGGCAUCAAAAGAAAUAGUCUUGCGCUCAACCAGAAAGUCUGGAAUCAUUUUAAGGGUA [U72A U124G] | 0.12
6 | GUUAACGGUCAUAGGCCAUGGAAACUAGGAGCACCAUUUCGCUGCCAGUGAAGAAAUGAACAAAGAAAAUCAGGGCCAGGCAGGCAUCAAAAGAAAUAGUCUUGCGCUCAACCAGAAAGUCUGAAAUCAUUUUAAGGGUA [U72A U124A] | 0.1
7 | GUUAACGGUCAUAGGCCAUGGAAACUAGGAGCACCAUUUCGCUGCCAGUGAAGAAAUGAACAAAGAAAAUCCGGGCCAGGCAGGCAUCAAAAGAAAUGGUCUUGCGCUCAACCAGAAAGUCUGUAAUCAUUUUAAGGGUA [U72C A98G] | 0.03
8 | GUUAACGGUCAUAGGCCAUGGAAACUAGGAGCACCAUUUCGCUGCCAGUGAAGAAAUGAACAAAGAAAAUCCGGGCCAGGCAGGCAUCAAAAGAAAUUGUCUUGCGCUCAACCAGAAAGUCUGUAAUCAUUUUAAGGGUA [U72C A98U] | 0.3
9 | GUUAACGGUCAUAGGCCAUGGAAACUAGGAGCACCAUUUCGCUGCCAGUGAAGAAAUGAACAAAGAAAAUCAGGGCCAGGCAGGCAUCAAAAGAAAUAGUCUUGCGCUCAACCAGAAAGUCUGUAAUCAUCUUAAGGGUA [U72A U131C] | 0.14
10 | GUUAACGGUCAUAGGCCAUGGAAACUAGGAGCACCAUUUCGCUGCCAGUGAAGAAAUGAACAAAGAAAAUCAGGGCCAGGCAGGCAUCAAAAGAAAUAGUCUUGCGCUCAACCAGAAAGUCUGUAAACAUUUUAAGGGUA [U72A U127A] | 0.64
11 | GUUAACGGUCAUAGGCCAUGGAAACUAGGAGCACCAUUUCGCUGCCAGUGAAGAAAUGAACAAAGAAAAUCCGGGCCAGGCAGGCAUCAAAAGAAAUAGUCUUGCGCUCAACCGGAAAGUCUGUAAUCAUUUUAAGGGUA [U72C A114G] | 2.31
12 | GUUAACGGUCAUAGGCCAUGGAAACUAGGAGCACCAUUUCGCUGCCAGUGAAGAAAUGAACAAAGAAAAUCCGGGCCAGGCAGGCAUCAAAAGAAAUAGUCUUGCGCUCAGCCAGAAAGUCUGUAAUCAUUUUAAGGGUA [U72C A111G] | 0.02
13 | GUUAACGGUCAUAGGCCAUGGAAACUAGGAGCACCAUUUCGCUGCCAGUGAAGAAAUGAACAAAGAAAAUCAGGGCCAGGCAGGCAUCAAAAGAAAUAGUCUUGCGCUCAACCAGAAAGCCUGUAAUCAUUUUAAGGGUA [U72A U120C] | 0.18
14 | GUUAACGGUCAUAGGCCAUGGAAACUAGGAGCACCAUUUCGCUGCCAGUGAAGAAAUGAACAAAGAAAAUCCGGGCCAGGCAGGCAUCAAAAGAAAUAGUCUUGCGCUCAACCAGACAGUCUGUAAUCAUUUUAAGGGUA [U72C A117C] | 0.08
15 | GUUAACGGUCAUAGGCCAUGGAAACUAGGAGCACCAUUUCGCUGCCAGUGAAGAAAUGAACAAAGAAAAUCCGGGCCAGGCAGGCAUCAAAAGAAAUAGUCUUGCGCUCAACCAGAAAGUCUGUAAUCAUUUUAAGGGUA [U72C] | 0.12
16 | GUUAACGGUCAUAGGCCAUGGAAACUAGGAGCACCAUUUCGCUGCCAGUGAAGAAAUGAACAAAGAAAAUCAGGGCCAGGCAGGCAUCAAAAGAAAUAGUCUUGCGCCCAACCAGAAAGUCUGUAAUCAUUUUAAGGGUA [U72A U108C] | 0.01
17 | GUUAACGGUCAUAGGCCAUGGAAACUAGGAGCACCAUUUCGCUGCCAGUGAAGAAAUGAACAAAGAAAAUCAGGGCCAGGCAGGCAUCAAAAGAAAUAGUCUUGCGCACAACCAGAAAGUCUGUAAUCAUUUUAAGGGUA [U72A U108A] | 0.04
18 | GUUAACGGUCAUAGGCCAUGGAAACUAGGAGCACCAUUUCGCUGCCAGUGAAGAAAUGAACAAAGAAAAUCAGGGCCAGGCAGGCAUCAAAAGAAAUAGUCUUGCGCUCAACCAGAAAGUCUGUAAUCAUUUGAAGGGUA [U72A U133G] | 0.36
19 | GUUAACGGUCAUAGGCCAUGGAAACUAGGAGCACCAUUUCGCUGCCAGUGAAGAAAUGAACAAAGAAAAUCCGGGCCAGGCAGGCAUCAAAAGAUAUAGUCUUGCGCUCAACCAGAAAGUCUGUAAUCAUUUUAAGGGUA [U72C A95U] | 0.35
20 | GUUAACGGUCAUAGGCCAUGGAAACUAGGAGCACCAUUUCGCUGCCAGUGAAGAAAUGAACAAAGAAAAUCCGGGCCAGGCAGGCAUCAAAAGAGAUAGUCUUGCGCUCAACCAGAAAGUCUGUAAUCAUUUUAAGGGUA [U72C A95G] | 0.35
21 | GUUAACGGUCAUAGGCCAUGGAAACUAGGAGCACCAUUUCGCUGCCAGUGAAGAAAUGAACAAAGAAAAUCCGGGCCAGGCAGGCAUCAAGAGAAAUAGUCUUGCGCUCAACCAGAAAGUCUGUAAUCAUUUUAAGGGUA [U72C A91G] | 0.05

Source: the RNAGym collection of RNA variant scans (doi:10.7554/elife.90254)
